Experimental data from patent publication US20250320258.

Test system: NSP1 (SARS-CoV-2)

With 18S rRNA the binding signal (fold enrichment) was > 5.
